Drawing on US20250289871A1, this text covers Authentic Virus Neutralization IC50 for 1 substance.

The target in assay [1] is SARS-CoV-2 D614G spike protein (authentic virus) (SARS-CoV-2) (UniProt P0DTC2). The assay is described as follows: cell-based or functional assay.
In assay [2] the target is SARS-CoV-2 Delta + T51I + T95I spike protein (authentic virus) (SARS-CoV-2) (UniProt P0DTC2). The assay is described as follows: cell-based or functional assay.

Consider cilgavimab (AZD1061) (antibody), for which the results for the Authentic Virus Neutralization IC50 in assay [1] and in assay [2] were 0.066 µg/mL and 0.014 µg/mL, respectively.
